System: Saccharomyces cerevisiae
Experiment: transcriptional activation domain activity (GFP:mCherry ratio, weighted mean of sorted bins, harmonized to initial dataset scale) (arbitrary fluorescence ratio units); higher = stronger transcriptional activation
Settings: beta-estradiol 1 µM; induction time 4 h
Procedure, shortened: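 Each value is an activation activity: the read-weighted mean of bin median fluorescence, averaged across barcodes, then mapped linearly to the initial dataset scale. The tiles, fused to an estradiol-inducible synthetic transcription factor, sat at the yeast URA3 locus in GFP-reporter diploids. Cells spent 4 hours at 30 °C in SC with 1 uM beta-estradiol before sorting into 8 GFP:mCherry bins, and tiles below 50 reads were removed.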

Row | Sequence | transcriptional activation domain activity
1 | SNGKEMAFQYYSFVKEWGHVLGRYPGEIERCLIGTLGNIFFSGVKPIANSYFL | 45400
2 | SNGTNNSGNMNTNADYESFFNTGTNNSNSNQNPYFLSSRNNSLKFNPEDFDFQ | 59100
3 | SNGTSLFVTCWVALNVFFHFYRLPLRWDFFFVFADRAGLIFIVNLPLLYLLAA | 59500
4 | SNHGLIYSKPLAWEWNCIIDSIENSLVGYCMEQIFVVHVSRLLLLQWSITQIF | 56000
5 | SNHNNDNDNSNNGDGNNNNTISELVCFDESIADLYPVEIDSPYLITLAYLDKL | 71900
6 | SNKRNKDENRGRSRTRSASRGRSRSASVFSDARSRSRARSRSRAATMAKAGAA | 36300
7 | SNKRPSSGPARGGRNNGGRGNNQNANNNRGGRRGRGGAKESGAPNGQKKAGAP | 9410
8 | SNPKELFFIRILLDLSWIDMRVAICSLRPILGEEPRKFREMLLVLPTLCSEIY | 66100
9 | SNPLTSQANRMSSYDKKTNVLGFDDGTFDNKVFNRTNFEEKAPFDIPLDEFFT | 119000
10 | SNRGSGGGGRATGAHSRRGRGSGDRGGRSSARSRSKSPGAEVAEAGEPAPAVP | 17900
11 | SNRLFVGLPLCRDPEYLKFSVNHTMRVFMSGRMISVLTPVLRPILAPLLCSRK | 49600
12 | SNTLSLALYTLIEHIGMQRLEYANNSLVMLLKLIHNIILSLKNLRLFFNFFVT | 41900
13 | SNVFPTQLLARHQKEIKRFKRMLAIVRWFEVCFALLRIKYLMKLFWFSVEFCN | 50000
14 | SNYCWQMSVLPRARISIFRAEVKERCVVTVALLFSVYDPIAIVDLVKKLETDF | 27500
15 | SNYSNLATRAPSGPPQFLVNNVIQHWGGVDGWIKWILKIRKAYILRRDVFLAT | 56800
16 | SPAPSFRGKSKAEEERERAVLDITDRVSKLLRKTQLQVRVIVECIHCKSPKHL | 33300
17 | SPDDFDQTLPLDLSDENITEVAYLPENQHSVLSSTGISNEHTKLFLILNEIIS | 63000
18 | SPDQDPHRPKVESGGEEQEQLGPPKKKRRRQALNCTECKRRKIRCDRSQPCGP | 18300
19 | SPENVSLAAVTGVYGLGLNPWPTFDYNMLGLDPLVTPFFTTFNFFLGTLFTLP | 74100
20 | SPFASAGQTGQSPFGGLNKASSPAFAGTGSGSTFGQASTLGGAFGKPAEPAAT | 32400
21 | SPKKAAAPKKPAAKKATEAKKASVKPKAAKETKEKKEAKPKAAKAAKPAAAAP | 28100

Row | Sequence | transcriptional activation domain activity
22 | SPKMYESFLRIDLRNLEVRVLGMGATTSDVRLANIVVQYLVKGWLPQTAYATL | 71200
23 | SPLNSFDRSFYPIGCTNLSNDIPGYSFLNDAMSEIHTFGDFNGELDSTFLEFS | 131000
24 | SPLPLLICSLPSLVNPLPLLPSTLALLPPPFILYYVLQYHVILFVFLVVFCFS | 33200
25 | SPLPPPSPFFPLQPLSLFHLSPLFSPVSLHFPCFSPFPPPLPPFFLPLLPLLS | 60500
26 | SPMGSGSDEEEEERRRKRRKEKKRSKKSKRERSGSLSGSGSEGGGGKRKRHQD | 36000
27 | SPQRSTSSTSSKAAAAPKAAAQPKQQQQKPAAPSKPAAAAAAPKTAPKPAAAS | 26000
28 | SPRPSYILNAYLFISLLFDIVVLRTVWIALPSFQPVRIVLTSSFALKTIILFL | 54000
29 | SPSPSTTATPPASPSPPSRTKSTPRASSRSACAPSVTTPAGRPRSCARSGPRC | 38000
30 | SPSRNAERPSPAAPAAMERGPDGRPRLKLAPRSAPRTETPSPAPVAPPAPVHV | 29400
31 | SPSRRRDRDYDYSRYRRRDDSRSRSPRRRADPKDQQEKEKEKVKVKPSRAAAT | 16200
32 | SPSSGLNINFFYHEVLMVLSLFNSMTRPDVMRWYAKTRFYHIVNLTAWQIYPC | 57400
33 | SPSSQTTSSTTVVLVFGSDEKRVKEVGDGLKSKLAVKGGGKGTRWSGKYTGVW | 32000
34 | SPTLSHCTDYRTPALAYNILITCSLFLLFRPKPLILFWCLVCIGFWHVALFSQ | 52500
35 | SPTRAYVGANTNSKNASFNDADLLSSSYWIKAYNDHLFSVSESDETSPMNSEL | 38800
36 | SPTSAFGTASAPAATSAFGAPATGAAGGGGGGFSAFAGKPAAFGGAAPAPAPA | 46100
37 | SPVYLICMGTVLLYVGVIIVMLIERIAYFRPGDGLCVIGLKPVASLSLLCFDL | 37200
38 | SPWSLPHLESKFVEDGLYYAIQVISYISKINSKASYYYYQIRMLLVASRFIMQ | 46000
39 | SPWVSWADTHSNFSRVVQVPSIYWRADPYSTASAETLRWATVVCVLLFFAYFR | 42700
40 | SQEESIDNENQKVKEEEIEISVNNIKTEVEKEELKKDNKKGKKVVNKKEIKEE | 39900
41 | SQKKHCELCKTAFRFTKLYSPDMPKHLPFHIFVHHMTRYLIRNFLVWLRAALV | 61500
42 | SQKKHCELCKTAFRFTKLYSPDMPKHLPFHIFVHHMTRYLLRNFLVWLRAALV | 43000

Row | Sequence | transcriptional activation domain activity
43 | SQKKHCELCKTPFRFTKLYSPSMPKTLPVYVFLSHVAKYLLRNLLVEARAMLV | 42900
44 | SQKNGTSAANALVYGGFSHTVTQHTIKDVSIDGTWLEEEIDGFKSDTLGFHVD | 72800
45 | SQLPSLRLFNSYLALWAIGLISIMLFLLIATWHYARVDWQMQVLAVHHVLNLS | 34800
46 | SQLQDPIAKEHVAFGLRHMYKTLQNEVKSYYNLMQSLHVRLPGLEFLTLWMAF | 50100
47 | SQLYFNVYPNELDERFSLFDPTYSLQWLFEHLFTTRVVELTRMLCFVMCIFVL | 37700
48 | SQNSNDTSSKGIVDPFVEQNNDITTALLNNELFQGPSLSDEVTDWFGASEDIG | 91000
49 | SQPSDTIRKRTAGDDGALDQTENTSISPKKRRTEDHTKGEEDEGERGVGNSGT | 22200
50 | SQQRLEVSAMYLFWHMDTVRGLCVRMPGTVMTRAHFFRLLTYYFAMLFLSAAL | 57000
51 | SQSRSRSASRSRSPPRKREKRDSSDREDSRDRRRNKSESRSRSRSPAKSAGSA | 16300
52 | SQVAVSPGAVIEVNEEDAGEEQEQQQPARKRQRHRSKRQKLDAEQSAGQGGVV | 31700
53 | SQVCLDSFGLLFAVVAYPCTSLLLLIFILASFLTFQAIFTLFPLFRLLAFFCL | 41700
54 | SQVIKILTLLFFFLNLLFFVLICAATVARYCMFPQLWPIMLNHPSQSLFIGAF | 60600
55 | SQVNKGKVQVWVMYFSFSFFFLFFIHLVCWFLLFCFFFFFVPFIIPLFFFFFL | 32300
56 | SQWRGVVALKLQIVKTLMKIRMVFPGLMTGLSLEYFSVIWTELNNALPIYLNF | 48000
57 | SRAKVCGWADVFMVIAMHCLLGWSVTMTLYALRGGTRHIWDLEPLGVDNLIKA | 35200
58 | SRDRDRKEKTDKTDKDRERDREKERRGEREREREKERERERAERHRERDRERE | 32800
59 | SREFLWVGFGVRCMVLAKFQVIKGLKYIRTIIAQKNQSAGLAIELRILMVVWV | 43800
60 | SREGKGGGAGRGKGGEQGGGMGEGKQGGGGGEAERGSREGKQRGEAGGRGKEE | 44600
61 | SREGPAQSSCSSRVTEILKSSRDLKVGDVLVLGKDQRVPADVVLLKSFATEAS | 18600
62 | SREQPPSGQSRETLQKRVLHVRSVGRVTKGGKIRSASAIVVVGNGNGIGGYGE | 38900
63 | SRGICVYPFLPFAFFLGVFFSLMEFVLLGMMMVLYLYMRTVTCMFDISICLLL | 48500

Row | Sequence | transcriptional activation domain activity
64 | SRHGREASEERARRKRRERQRDNDGGNRSRRKHTSPSSDDADRLTRKRKSRHE | 11000
65 | SRIRAKRIYTKLNLFFRSAFLSYTDFKQTIIVLVSLLKLSLNLWDIVKLMCPQ | 47400
66 | SRITSIGVWYLLIQMIWYILFGILYIWFFCQTWESFTVLLVVDYSLRIILCLM | 58100
67 | SRKESRKEKSESKPVKAGKKEGKEKGKGKEGKEGKADGEKAAKPKKEKKEKKE | 17700
68 | SRKGESGREDSGGRDKESRKRSRRDKTPVADERRRDGTRAAEERDRKRRGDHR | 49100
69 | SRLCLVSVGECLLLLSLVWGLLLLISLYLVLFFLHCVCMSGLFLCDLFELFVT | 64800
70 | SRLDAIEEEEEDLAAKNEGSTSNIEVDEIDIKSRDLKVGDIVKLGKNQRVPAD | 39600
71 | SRLFDLQLNICLSFQVYWFRNLVDGFPLDIPPLHIASFFGLVEPLTALLKSLG | 33100
72 | SRLHARIEYEESSEQFVLAVLGRNGAWVDGVWSGSGSRVPLSSRSQIQIASRV | 52800
73 | SRLLHLLLVTLGLLVVLLYSFFPSPDVFVLSPLRSPLFLLFSPSFFFCLFCLF | 75400
74 | SRLRKTGTPTSSQHSSTAFSGYIDDPFNLNEILPLPASDFKLNTVTNLNEIDF | 106000
75 | SRLTHVLLCYRQSLLVTVYSHLLLLDQSSQVWWRWMSIFFTLIMWSIELLISS | 57600
76 | SRPPRPSASSSTTPRARSRSTARPSRARWPRPRCPSSGGCTRACRTRRCTRRM | 45300
77 | SRPSTAPKPAPNPSPETTVTSISTPSEKRKRGRKPKAKPVEVPVSQTSGADSL | 20600
78 | SRRAHSSDRDEARSARRRGRDRSRSRNRSRSWSRHRHRHRSHSRDAPAAAAAR | 22600
79 | SRREDGVKVEDADDGGVSLEKGVEDLNIDNNNGKKEKGGVFVHCAAGKSRSVS | 43100
80 | SRRPAKKVKEEGEKKAASGDKKGRGKALSEKSKPDAKGSKAKSKHKKDSDSEE | 24900
81 | SRSGGGNGKPAGSGKNGSSQLKEVASRSRRRGDSDDDDRKGGSTRSGGGSRKV | 34000
82 | SRSRKGRGRRRRGSKASRGSRSSRGSAASSANTSDSSSSSSSSDSDDSSSSSS | 18200
83 | SRSRSRDRHRRSSRRHRRRSPSASRSRSASRSRRRRHSKRRSREKRHSSRRHR | 30200

— the supplement of paper PMC12636428
